Test results as given in the Human Domainome abundance scans (Beltran et al. 2025).
± gives the uncertainty stated by the source.

B1: V(D)J recombination-activating protein 2, residues 415 to 491; numbered along this chain, P55895 (parent)
chain: YWITCCPTCDVDINTWVPFYSTELNKPAMIYCSHGDGHWVHAQCMDLAERTLIHLSAGSNKYYCNEHVEIARALHTP

Variants of: B1
Assay: abundance fitness (aPCA) (normalised: wild type 0, dead -1); higher = more abundant; growth selection in yeast, the domain comes from the species named
Conditions: Homo sapiens

Abundance fitness of substitutions, site by site:
V68: N -0.219 ± 0.4, I -0.318 ± 0.2, Y -0.335 ± 0.19
I70: F -0.002 ± 0.091, S -0.145 ± 0.14, R 0.015 ± 0.03, C 0.176 ± 0.13, H -0.205 ± 0.23, E -0.093 ± 0.097, P -0.216 ± 0.22, N -0.169 ± 0.18, D 0.112 ± 0.14, L 0.03 ± 0.073, G -0.045 ± 0.053, K -0.139 ± 0.12, Y 0.064 ± 0.14, Q -0.036 ± 0.089, M 0.02 ± 0.077
R72: A 0.138 ± 0.11, N 0.059 ± 0.21, E -0.042 ± 0.12, W -0.168 ± 0.075, K 0.022 ± 0.18, T 0.056 ± 0.08, I -0.121 ± 0.19, G 0.022 ± 0.11, F -0.131 ± 0.18, Y -0.332 ± 0.16, S 0.073 ± 0.071, V -0.016 ± 0.12, P 0.01 ± 0.1, C -0.143 ± 0.16, D 0.032 ± 0.21, Q -0.085 ± 0.12
L74: Q -0.062 ± 0.25, G 0.092 ± 0.16
A73: Q 0.009 ± 0.14, W -0.104 ± 0.086, D 0.019 ± 0.12, I -0.042 ± 0.098, V -0.257 ± 0.071, T 0.033 ± 0.088, S -0.089 ± 0.14, Y -0.109 ± 0.17, P 0.027 ± 0.13, M -0.121 ± 0.1, L 0.053 ± 0.084, R 0.001 ± 0.057, E -0.009 ± 0.1, G 0.096 ± 0.071
C64: G -0.935 ± 0.1, Q -0.768 ± 0.23, M -1.06 ± 0.46, A -1.01 ± 0.16, L -1.07 ± 0.2, H -0.962 ± 0.41, P -0.822 ± 0.26, T -1.05 ± 0.4, K -0.842 ± 0.3, Y -0.712 ± 0.28, V -0.557 ± 0.081, W -0.901 ± 0.11, S -0.803 ± 0.12, F -0.851 ± 0.37, E -1.05 ± 0.25, R -0.945 ± 0.11
H75: D 0.094 ± 0.12, W -0.069 ± 0.064, Y -0.179 ± 0.1, S -0.042 ± 0.081, E 0.029 ± 0.12, G 0.087 ± 0.11, K -0.003 ± 0.1, L -0.013 ± 0.049, N 0.051 ± 0.26, R -0.001 ± 0.058, V -0.075 ± 0.08, T 0.089 ± 0.068, C -0.155 ± 0.092, F -0.087 ± 0.1, Q 0.089 ± 0.11, P -0.111 ± 0.063, A 0.002 ± 0.08, I -0.003 ± 0.14
Y63: I 0.036 ± 0.12, F -0.002 ± 0.13, W 0.115 ± 0.12, H -0.012 ± 0.14, E -0.068 ± 0.077, V -0.051 ± 0.069, A -0.048 ± 0.061, K -0.005 ± 0.096, C 0.188 ± 0.11, S -0.18 ± 0.095, M -0.171 ± 0.096, G -0.377 ± 0.081, D -0.207 ± 0.096, R -0.049 ± 0.067
P77: A -0.123 ± 0.21, C -0.243 ± 0.34, S -0.354 ± 0.29, N -0.325 ± 0.35, Q -0.011 ± 0.26, R 0.152 ± 0.31, G -0.157 ± 0.35, W -0.237 ± 0.38
N65: G 0.012 ± 0.047, C -0.138 ± 0.1, P 0.016 ± 0.11, K -0.047 ± 0.081, L 0.008 ± 0.054, H 0.003 ± 0.16, F -0.172 ± 0.12, E 0.058 ± 0.082, Y -0.318 ± 0.36, W 0.036 ± 0.078, S 0.079 ± 0.079, T -0.005 ± 0.074, R 0.079 ± 0.045, A 0.001 ± 0.063, I 0.185 ± 0.13, M -0.12 ± 0.085, V 0.008 ± 0.047, Q -0.181 ± 0.14
Y62: K -0.6 ± 0.21, A -0.328 ± 0.08, D -0.558 ± 0.11, F -0.003 ± 0.12, C -0.442 ± 0.2, G -0.495 ± 0.071, V -0.342 ± 0.09, L -0.304 ± 0.072, P -0.67 ± 0.084, M -0.206 ± 0.19, Q -0.312 ± 0.12, W 0.067 ± 0.087, R -0.561 ± 0.083, T -0.152 ± 0.13, H -0.377 ± 0.14, I -0.281 ± 0.097, N -0.469 ± 0.17
E69: Q 0.147 ± 0.37, M 0.18 ± 0.27, C -0.355 ± 0.31, W 0.071 ± 0.23, A -0.092 ± 0.33, R 0.035 ± 0.087, Y -0.328 ± 0.41, D 0.052 ± 0.16, S 0.075 ± 0.11, T 0.007 ± 0.13, G 0 ± 0.1, V -0.14 ± 0.2, K -0.183 ± 0.29, P 0.358 ± 0.38
K61: N -0.115 ± 0.29, W -0.159 ± 0.2, V 0.069 ± 0.19, G 0.06 ± 0.12, L 0.158 ± 0.1, E -0.002 ± 0.16, T -0.045 ± 0.3, S -0.116 ± 0.13, A 0.017 ± 0.047, Q 0.097 ± 0.36, R -0.287 ± 0.2, C -0.098 ± 0.18
